Patent US20150217006A1 (IMMUNOMEDICS, published 2015)

Legend:
[1] = target: T1, gastrin-releasing peptide receptor (GRPR) (human, UniProt P30550 1-384); test: competition with 125I-Bombesin on PC-3 cells, inhibitor 56 to 0.44 nM
T1 construct: whole, on cells; also called GRP receptor; GRP-receptor
Method: (§1) We used IMP333 as a non-specific control. […] A range of 56 to 0.44 nM was used as our inhibitory concentrations.

[2] = target: T1, gastrin-releasing peptide receptor …; test: competition with 125I-BBN on PC-3 cells, repeat experiment, inhibitor 250 to 2 nM
Method: as §1
This experiment was repeated using a commercially available BBN peptide. We increased the amount of inhibitory peptide from 250 to 2 nM to block the ¹²⁵I-BBN from binding to PC-3 cells.

T1 sequence (P30550 whole entry): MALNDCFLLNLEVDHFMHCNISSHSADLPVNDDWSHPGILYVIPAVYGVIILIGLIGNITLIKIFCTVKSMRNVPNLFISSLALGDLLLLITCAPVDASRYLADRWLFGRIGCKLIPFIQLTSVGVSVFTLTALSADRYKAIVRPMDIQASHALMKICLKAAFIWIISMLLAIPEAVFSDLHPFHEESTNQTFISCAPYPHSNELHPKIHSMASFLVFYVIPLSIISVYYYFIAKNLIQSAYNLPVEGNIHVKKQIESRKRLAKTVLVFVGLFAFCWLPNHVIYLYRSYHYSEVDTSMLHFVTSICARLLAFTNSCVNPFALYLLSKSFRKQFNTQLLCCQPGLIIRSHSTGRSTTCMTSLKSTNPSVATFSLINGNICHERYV

B1: IMP468 (NOTA-NH-(CH2)7CO-Gln-Trp-Val-Trp-Ala-Val-Gly-His-Leu-Met-NH2) (peptide)
peptide: QWVWAVGHLM
HELM: PEPTIDE1{[O=C(O)CN1CCN(CC(=O)O)CCN(CC(=O)[*:2])CC1].[O=C(CCCCCCCN[*:1])[*:2]].Q.W.V.W.A.V.G.H.L.M.[am]}$$$$V2.0
SMILES: CSCC[C@H](NC(=O)[C@H](CC(C)C)NC(=O)[C@H](Cc1c[nH]cn1)NC(=O)CNC(=O)[C@@H](NC(=O)[C@H](C)NC(=O)[C@H](Cc1c[nH]c2ccccc12)NC(=O)[C@@H](NC(=O)[C@H](Cc1c[nH]c2ccccc12)NC(=O)[C@H](CCC(N)=O)NC(=O)CCCCCCCNC(=O)CN1CCN(CC(=O)O)CCN(CC(=O)O)CC1)C(C)C)C(C)C)C(N)=O
notes: also called NOTA-conjugated bombesin derivative
[1]
  IC50: 21.5 nM
[2]
  IC50: 35.9 nM
